B1: CPEB3 Ribozyme (parent)
chain: GGGGGCCACAGCAGAAGCGUUCACGUCGCGGCCCCUGUCAGAUUCUGGUGAAUCUGCGAAUUCUGCUGU

Variants of: B1
Assay: self-cleavage, relative activity (ratio to wild type); higher = more cleavage; co-transcriptional
C9A C32A showed a self-cleavage of 1. A8G U62G showed a self-cleavage of 0.367. C7U C24U gave a self-cleavage of 0.676. For C7U C24G, the self-cleavage was 0.225. In the case of C7G A15U, the self-cleavage is reported as 0.0664. Work on C7U G28A yielded a self-cleavage of 0.123. Variant A8G G48C has a self-cleavage of 0.954. In the case of C7U G47U, the self-cleavage is reported as 1.02. For A8G C27G, the self-cleavage was 0.0649. A8U G58A showed a self-cleavage of 0.995. A8C U43G showed a self-cleavage of 0.938. Variant A8C U43C has a self-cleavage of 0.95. A8C U43A showed a self-cleavage of 0.971. For C9A, the self-cleavage was 1.03. C7G G17U showed a self-cleavage of 0.0489. In the case of C7G G17C, the self-cleavage is reported as 0.112. In the case of A8C A42C, the self-cleavage is reported as 0.992. Work on C7G G48C yielded a self-cleavage of 0.502. In the case of A8U G56C, the self-cleavage is reported as 0.761. Variant A8U U49A has a self-cleavage of 0.98. A8U U49C gave a self-cleavage of 1.02. In the case of A8C A15G, the self-cleavage is reported as 0.995. A8U C66A showed a self-cleavage of 0.857. Variant A8U C66U has a self-cleavage of 0.993. Variant A8G C34A has a self-cleavage of 0.734. A8G C34U showed a self-cleavage of 0.952. With C7U C35A the self-cleavage was 0.194. With C7U C35G the self-cleavage was 0.28. For C7G A42U, the self-cleavage was 0.303. C7G G11C gave a self-cleavage of 0.157. For C7G G11U, the self-cleavage was 0.175. Variant C7U G31A has a self-cleavage of 0.496. C7U U21C gave a self-cleavage of 0.688. Variant A8U C12U has a self-cleavage of 1.05. For A8G U53C, the self-cleavage was 0.31. For A8G U53A, the self-cleavage was 0.591. In the case of A8U G30U, the self-cleavage is reported as 0.519. Work on A8C G47U yielded a self-cleavage of 1.04. Work on A8C G47C yielded a self-cleavage of 1.03. Work on C7A U69C yielded a self-cleavage of 1. Work on A8C C27U yielded a self-cleavage of 0.342. Work on A8G G65U yielded a self-cleavage of 0.223. Variant A8G G65C has a self-cleavage of 0.424. C7G U36A gave a self-cleavage of 0.0233. A8G C32U gave a self-cleavage of 0.877. Work on A8G C32G yielded a self-cleavage of 0.517. C7G C57A showed a self-cleavage of 0.146. Variant A8C C12A has a self-cleavage of 0.637. A8U G19U showed a self-cleavage of 0.483. Variant A8U G19C has a self-cleavage of 0.146. A8U U61C gave a self-cleavage of 0.808. Work on A8U A51C yielded a self-cleavage of 0.974. For A8U G48U, the self-cleavage was 1.03. With A8G U55A the self-cleavage was 0.269. Work on C7U U44A yielded a self-cleavage of 0.881. For C7U U44G, the self-cleavage was 0.914. For C7G C9U, the self-cleavage was 0.844. With A8C U69C the self-cleavage was 1.07. A8G U43C gave a self-cleavage of 0.758. In the case of A8G A60C, the self-cleavage is reported as 0.143. A8U U36G gave a self-cleavage of 0.163. A8G U38A showed a self-cleavage of 0.662. Work on A8G U38G yielded a self-cleavage of 0.0785. A8C U64A gave a self-cleavage of 0.947. For C7G A60C, the self-cleavage was 0.196. C7U G30A showed a self-cleavage of 0.957. C7U G30C showed a self-cleavage of 0.608. With C7U G30U the self-cleavage was 0.814. For C9A C18G, the self-cleavage was 0.26. A8U A15C gave a self-cleavage of 0.812. With C7G C27A the self-cleavage was 0.11. C7U G58U gave a self-cleavage of 0.983. Work on A8C C63G yielded a self-cleavage of 0.734. A8G G19A showed a self-cleavage of 0.0612. A8G G47A showed a self-cleavage of 1. For A8C G48A, the self-cleavage was 1. A8U G25U gave a self-cleavage of 0.0965. With C7U U46G the self-cleavage was 0.934. C7U U46A showed a self-cleavage of 0.985. Variant A8C G19C has a self-cleavage of 0.107. Variant A8C G19U has a self-cleavage of 0.462. Work on A8G U20A yielded a self-cleavage of 0.0589. For C7U C22U, the self-cleavage was 0.155. For C9A C29U, the self-cleavage was 0.992. Variant C9A C29A has a self-cleavage of 0.86. With A8C G68A the self-cleavage was 1.02. With A8U A42G the self-cleavage was 0.943. A8G U21A showed a self-cleavage of 0.833. Work on A8G U21G yielded a self-cleavage of 0.199. Variant A8G U69C has a self-cleavage of 1.05. With A8G U69A the self-cleavage was 0.928. With A8U U44A the self-cleavage was 0.97. With C7G C22G the self-cleavage was 0.0908. For C7G C22A, the self-cleavage was 0.104. Variant C7U C66A has a self-cleavage of 0.8. C7U C66U gave a self-cleavage of 0.982. Work on A8U A23C yielded a self-cleavage of 0.944. Work on A8C A52U yielded a self-cleavage of 0.962. With C7A U53C the self-cleavage was 0.274. In the case of C7A U53A, the self-cleavage is reported as 0.321. For A8C C66A, the self-cleavage was 0.818. Work on C7G G41A yielded a self-cleavage of 0.131. C7G G41C gave a self-cleavage of 0.121. Work on A8U C57A yielded a self-cleavage of 0.299. Work on A8U C57U yielded a self-cleavage of 0.361. A8G A23C showed a self-cleavage of 0.751. C7U G50A showed a self-cleavage of 0.996. Variant C9A A59U has a self-cleavage of 0.897. Variant C7G G58A has a self-cleavage of 0.281. Work on A8G U36C yielded a self-cleavage of 0.593. Work on A8G U36G yielded a self-cleavage of 0.135. C7G U67G showed a self-cleavage of 0.75. For C7G C18A, the self-cleavage was 0.0277. Variant A8U U67C has a self-cleavage of 1. With A8U U67A the self-cleavage was 1.03. With A8U C33U the self-cleavage was 0.996. Variant A8U C33A has a self-cleavage of 0.935. For A8C G56U, the self-cleavage was 0.908. For A8U C9A, the self-cleavage was 1.03. In the case of A8G C9A, the self-cleavage is reported as 0.994. C7G G30C showed a self-cleavage of 1.01. Work on C7G G30A yielded a self-cleavage of 0.791. In the case of C9A A13C, the self-cleavage is reported as 0.965. For A8C U20G, the self-cleavage was 0.141. Work on A8C U44G yielded a self-cleavage of 0.927. A8G C39U showed a self-cleavage of 0.448. C7U C29U gave a self-cleavage of 0.505. Work on C7U C29A yielded a self-cleavage of 0.413. In the case of C7U C29G, the self-cleavage is reported as 0.314. Work on C7G U62A yielded a self-cleavage of 0.18. Work on A8C G58C yielded a self-cleavage of 0.963. A8C G58U showed a self-cleavage of 1.03. In the case of A8C G25U, the self-cleavage is reported as 0.177. In the case of C7U G37C, the self-cleavage is reported as 0.152. Variant C7U G37A has a self-cleavage of 0.187. A8C U26A gave a self-cleavage of 0.82. A8C U26C showed a self-cleavage of 0.992. In the case of A8C U26G, the self-cleavage is reported as 0.835. C7G U46G showed a self-cleavage of 0.455. A8C G31A showed a self-cleavage of 0.888. A8U A13U showed a self-cleavage of 0.805. For C7G U38G, the self-cleavage was 0.068. With C7G U38C the self-cleavage was 0.174. With C7G U38A the self-cleavage was 0.264. In the case of A8C C35A, the self-cleavage is reported as 0.374. C7U U20G showed a self-cleavage of 0.17. Variant A8U C22A has a self-cleavage of 0.154. Variant A8C U67C has a self-cleavage of 1. A8C U67G gave a self-cleavage of 0.975. A8C C29U gave a self-cleavage of 0.81. A8C C29G showed a self-cleavage of 0.0981. C7G C32A gave a self-cleavage of 0.0649. For A8U U55A, the self-cleavage was 0.967. In the case of A8C C33U, the self-cleavage is reported as 1. For C7U U55G, the self-cleavage was 0.706. With C7U U55C the self-cleavage was 0.744. With A8C U46G the self-cleavage was 0.982. Variant C7G G68C has a self-cleavage of 0.815. Variant A8G A13C has a self-cleavage of 0.126. Work on A8G A13G yielded a self-cleavage of 0.192. With A8C G41C the self-cleavage was 0.757. C7G C29A showed a self-cleavage of 0.102. For C7G C29U, the self-cleavage was 0.0696. For C7G C29G, the self-cleavage was 0.125. In the case of C7U A42G, the self-cleavage is reported as 0.908. C7U G11A showed a self-cleavage of 0.816. In the case of C7U G11C, the self-cleavage is reported as 0.663.

Reference: the RNAGym collection of RNA variant scans (doi:10.7554/elife.80360)
